Assays:
GFP-tagged PDC1 = molecular target: T1, GFP-tagged PDC1 (Saccharomyces cerevisiae, UniProt P06169 2-563); assay: co-immunoprecipitation, Nb coupled to NHS-agarose beads, lysate of the yeast strain expressing the GFP-tagged target, SDS-PAGE
T1 construct: Yeast GFP Fusion Collection strain; also called Yeast GFP fusion collection GFP(+)12, F8; not shown: GFP tag
T1 sequence (looked up): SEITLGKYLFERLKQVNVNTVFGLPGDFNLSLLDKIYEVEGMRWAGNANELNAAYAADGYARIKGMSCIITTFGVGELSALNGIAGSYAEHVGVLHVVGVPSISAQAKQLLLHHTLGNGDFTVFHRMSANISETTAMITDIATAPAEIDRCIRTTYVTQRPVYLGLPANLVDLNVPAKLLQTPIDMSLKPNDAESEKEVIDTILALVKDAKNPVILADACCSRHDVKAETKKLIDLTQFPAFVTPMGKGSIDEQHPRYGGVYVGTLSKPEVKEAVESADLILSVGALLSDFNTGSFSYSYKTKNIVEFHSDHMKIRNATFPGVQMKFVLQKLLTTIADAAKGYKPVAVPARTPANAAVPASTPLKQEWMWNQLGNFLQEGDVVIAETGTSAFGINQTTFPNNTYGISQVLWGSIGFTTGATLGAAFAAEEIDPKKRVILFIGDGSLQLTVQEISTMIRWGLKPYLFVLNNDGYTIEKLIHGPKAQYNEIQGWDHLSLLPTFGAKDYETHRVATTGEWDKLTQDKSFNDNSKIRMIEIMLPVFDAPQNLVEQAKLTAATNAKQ
Protocol: (§1) Two PDC1-specific Nanobodies (51=Nb clone CA17451 corresponding to SEQ ID NO: 7, 52=CA17452-SEQ ID NO: 8) were characterized by co-immunoprecipitation assays. Each PDC1-specific Nanobodies was covalently linked to NHS-agarose beads. The beads that were functionalized with these PDC1-specific Nanobodies were incubated for an hour at 4° C. on a rotating device with either an EBY100 lysate or the lysate of the engineered Yeast strain expressing PDC1 (Yeast GFP fusion collection reference: GFP(+)12, F8) as a GFP-tagged protein. After washing, these beads were resuspended in SDS-PAGE loading dye and analyzed on SDS-PAGE (FIG. 5A). Separated proteins were transferred to a PVDF membrane and the Western blot (FIG. 5B) was developed with GFP-specific antibody to confirm the presence of GFP-tagged PDC1.

[1] = molecular target: T2, PDC1 (native, from EBY100 lysate) (Saccharomyces cerevisiae, UniProt P06169 2-563); assay: co-immunoprecipitation, Nb coupled to NHS-agarose beads, EBY100 yeast lysate (native target), SDS-PAGE
T2 construct: mature; Endogenous untagged protein; also called YLR044C
T2 sequence (looked up): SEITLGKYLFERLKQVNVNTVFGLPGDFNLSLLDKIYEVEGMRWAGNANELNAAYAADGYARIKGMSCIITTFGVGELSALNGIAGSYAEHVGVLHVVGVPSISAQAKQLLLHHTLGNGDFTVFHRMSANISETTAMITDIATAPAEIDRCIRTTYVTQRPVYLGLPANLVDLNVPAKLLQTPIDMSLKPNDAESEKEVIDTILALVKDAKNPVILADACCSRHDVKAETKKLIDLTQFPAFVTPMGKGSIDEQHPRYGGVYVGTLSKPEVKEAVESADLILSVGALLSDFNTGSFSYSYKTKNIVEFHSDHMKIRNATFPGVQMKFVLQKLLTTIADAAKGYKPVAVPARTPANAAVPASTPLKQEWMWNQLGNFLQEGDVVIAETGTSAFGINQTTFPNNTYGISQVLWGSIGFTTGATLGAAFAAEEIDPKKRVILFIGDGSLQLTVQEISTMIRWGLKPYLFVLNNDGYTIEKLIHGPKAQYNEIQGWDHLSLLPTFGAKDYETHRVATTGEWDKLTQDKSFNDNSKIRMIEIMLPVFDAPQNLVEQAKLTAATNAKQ
Protocol: as §1

GFP-tagged SSA1 = molecular target: T3, GFP-tagged SSA1 (Saccharomyces cerevisiae, UniProt P10591 2-642); assay: co-immunoprecipitation, Nb coupled to NHS-agarose beads, lysate of the yeast strain expressing the GFP-tagged target, Western blot anti-GFP
T3 construct: Yeast GFP Fusion Collection strain; also called Yeast GFP fusion collection GFP(+)10, E4; not shown: GFP tag
Protocol: Six SSA1-specific Nanobodies (60=Nb clone CA17560 corresponding to SEQ ID NO: 19, 61=CA17561-SEQ ID NO: 20, 62=CA17562-SEQ ID NO: 21, 63=CA17563-SEQ ID NO: 22, 64=CA17564-SEQ ID NO: 23, 65=CA17565-SEQ ID NO: 24) were characterized by co-immunoprecipitation assays. Each SSA1-specific Nanobodies was covalently linked to NHS-agarose beads. The beads that were functionalized with these SSA1-specific Nanobodies were incubated for an hour at 4° C. on a rotating device with either an EBY100 lysate or the lysate of the engineered Yeast strain expressing SSA1 (Yeast GFP fusion collection reference: GFP(+)10, E4) as a GFP-tagged protein. After washing, these beads were resuspended in SDS-PAGE loading dye and analyzed on SDS-PAGE (FIG. 6A). Separated proteins were transferred to a PVDF membrane and the Western blot (FIG. 6B) was developed with GFP-specific antibody to confirm the presence of GFP-tagged SSA1.

[2] = molecular target: T4, SSA1 (native, from EBY100 lysate) (Saccharomyces cerevisiae, UniProt P10591 2-642); assay: co-IP, Nb on NHS-agarose beads, EBY100 yeast lysate, SDS-PAGE
T4 construct: mature; Endogenous untagged protein; also called YAL005C

GFP-tagged PGI1 = molecular target: T5, GFP-tagged PGI1 (Saccharomyces cerevisiae, UniProt P12709 2-554); assay: co-immunoprecipitation, Nb coupled to NHS-agarose beads, lysate of the yeast strain expressing the GFP-tagged target, SDS-PAGE
T5 construct: Yeast GFP Fusion Collection strain; 88 kDa band; also called GFP-PGI1; Yeast GFP fusion collection GFP(+)12, H11; not shown: GFP tag
Protocol: (§2) Three PGI1-specific Nanobodies (55=Nb clone CA17455 corresponding to SEQ ID NO: 15, 56=CA17456-SEQ ID NO: 16, 57=CA17457-SEQ ID NO: 17) were characterized by co-immunoprecipitation assays. Each PGI1-specific Nanobodies was covalently linked to NHS-agarose beads. The beads that were functionalized with these PGI1-specific Nanobodies were incubated for an hour at 4° C. on a rotating device with either an EBY100 lysate or the lysate of the engineered Yeast strain expressing PGI1 (Yeast GFP fusion collection reference: GFP(+)12, H11) as a GFP-tagged protein. After washing, these beads were resuspended in SDS-PAGE loading dye and analyzed on SDS-PAGE (FIG. 7A). Separated proteins were transferred to a PVDF membrane and the Western blot (FIG. 7B) was developed with GFP-specific antibody to confirm the presence of GFP-tagged PGI1.

[3] = molecular target: T6, PGI1 (native, un-tagged, from EBY100 lysate) (Saccharomyces cerevisiae, UniProt P12709 2-554); assay: co-immunoprecipitation, Nb coupled to NHS-agarose beads, EBY100 yeast lysate (native target), SDS-PAGE
T6 construct: mature; Endogenous untagged protein, 61 kDa band; also called YBR196C; endogenous PGI1
Protocol: as §2

T5 sequence (P12709 2-554): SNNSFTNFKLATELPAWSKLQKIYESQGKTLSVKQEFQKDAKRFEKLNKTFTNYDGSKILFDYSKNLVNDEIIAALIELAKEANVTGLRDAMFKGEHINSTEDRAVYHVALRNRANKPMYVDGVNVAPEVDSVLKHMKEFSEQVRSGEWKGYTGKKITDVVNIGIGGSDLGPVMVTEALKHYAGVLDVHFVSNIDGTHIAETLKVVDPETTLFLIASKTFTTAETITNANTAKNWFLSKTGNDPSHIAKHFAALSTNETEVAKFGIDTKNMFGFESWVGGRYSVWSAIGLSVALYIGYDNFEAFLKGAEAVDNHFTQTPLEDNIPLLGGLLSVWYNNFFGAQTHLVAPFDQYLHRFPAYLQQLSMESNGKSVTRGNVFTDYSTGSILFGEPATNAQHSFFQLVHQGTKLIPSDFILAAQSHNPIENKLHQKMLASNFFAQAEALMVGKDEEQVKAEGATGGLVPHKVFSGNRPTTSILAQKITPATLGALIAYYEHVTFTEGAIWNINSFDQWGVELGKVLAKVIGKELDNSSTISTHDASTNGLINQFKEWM
T6 sequence (P12709 2-554): as above
T4 sequence (P10591 2-642): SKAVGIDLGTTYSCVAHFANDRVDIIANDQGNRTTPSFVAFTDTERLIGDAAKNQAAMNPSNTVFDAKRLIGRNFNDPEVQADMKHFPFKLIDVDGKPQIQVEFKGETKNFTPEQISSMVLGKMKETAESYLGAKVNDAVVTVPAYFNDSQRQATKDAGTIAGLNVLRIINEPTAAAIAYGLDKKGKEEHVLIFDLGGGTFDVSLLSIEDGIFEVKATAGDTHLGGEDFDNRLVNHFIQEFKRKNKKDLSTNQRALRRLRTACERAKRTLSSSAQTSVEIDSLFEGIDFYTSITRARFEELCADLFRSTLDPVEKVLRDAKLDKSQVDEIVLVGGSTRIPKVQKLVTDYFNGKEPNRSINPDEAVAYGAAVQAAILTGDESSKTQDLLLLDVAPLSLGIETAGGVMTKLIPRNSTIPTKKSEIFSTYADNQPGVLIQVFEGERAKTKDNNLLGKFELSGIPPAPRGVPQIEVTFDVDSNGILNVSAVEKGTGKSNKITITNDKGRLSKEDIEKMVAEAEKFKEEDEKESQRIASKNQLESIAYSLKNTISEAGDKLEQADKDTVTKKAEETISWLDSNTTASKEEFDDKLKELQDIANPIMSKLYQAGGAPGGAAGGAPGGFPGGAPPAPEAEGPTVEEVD
T3 sequence (P10591 2-642): as above

B1: CA17451 (VHH)
VHH: QVQLVESGGGLVQPGGSLRLSCAASGISFSINTLGWYRQAPGKQRELVATVTTGGSTYYVDSAKGRFTVSRDNAKNTVYLQMNSLNSEDTAVYYCKLERYGVWGQGTQVTVSS
notes: C-terminal 6xHis-EPEA tag is part of the entry
- binding result (GFP-tagged PDC1): binds
- binding result [1]: binds

B2: CA17565 (VHH)
VHH: QVQLVESGGGRVQPGGSLRLSCVASGFTFTSYGMSWYRQTPGKEREFVAAISSESTWADYGDSVKGRFTISRDNAKKMVYLQMNSLKPDDTAVYYCNRDQVPWPTWGPGTQVTVSS
notes: as for B1
- binding result (GFP-tagged SSA1): binds
- binding result [2]: binds

B3: CA17455 (VHH)
VHH: QVQLVESGGGLVQPGGSLRLSCAASGITFPSYRLSWYRQAPGKERELVAAITSDGGTTNYADFVKGRFTISRDNTKNTVYLQMNSLKPEDTAVYYCKAQYFSTPLTYWGQGTQVTVSS
notes: C-terminal 6xHis-EPEA tag is part of the entry; also called PGI1-specific trapper/stripper
- binding result (GFP-tagged PGI1): binds
- binding result [3]: binds

B4: CA17456 (VHH)
VHH: QVQLVESGGGLVQPGGSLRLSCAASRSIVTINVMGWYRQAPGKEREFVAGATSGGSTDYADSVKGRFTISRDNAKNTVYLQMNSLKPEDTAVYYCNLRGTGYNYGENYWGKGTQVTVSS
notes: as for B1
- binding result (GFP-tagged PGI1): binds
- binding result [3]: binds

B5: CA17457 (VHH)
VHH: QVQLVESGGGLVQTGGSLRLSCAASGGHFSNLAMGWFRQAPGKEREFVAAIGRSQFNLLYSNFVKGRFTISRDNAENTVYLQLNSLNSEDTAIYYCASSGGVSDWRGIMTTGARLARNYDYWGQGTQVTVSS
notes: as for B1
- binding result (GFP-tagged PGI1): binds
- binding result [3]: binds

B6: CA17564 (VHH)
VHH: QVQLVESGGGLVQPGDSLRLSCVVSVQHFGNYIVGWFRQPPGKEREFVSAISRGLRTYYADSVKGRVTISRDNAKNSVYLQMNSLKPEDTAVYYCAGSRLLEGAPRDSRGYNNWGQGTQVTVSS
notes: as for B1
- binding result (GFP-tagged SSA1): binds
- binding result [2]: binds

Reference: patent US20240287501A1 (VIB VZW, published 2024)
